Positions count from the first letter of the chain named.
T1: mouse FAPα on Expi293F cells (mouse (Mus musculus), UniProt P97321 1-761)
T1 sequence: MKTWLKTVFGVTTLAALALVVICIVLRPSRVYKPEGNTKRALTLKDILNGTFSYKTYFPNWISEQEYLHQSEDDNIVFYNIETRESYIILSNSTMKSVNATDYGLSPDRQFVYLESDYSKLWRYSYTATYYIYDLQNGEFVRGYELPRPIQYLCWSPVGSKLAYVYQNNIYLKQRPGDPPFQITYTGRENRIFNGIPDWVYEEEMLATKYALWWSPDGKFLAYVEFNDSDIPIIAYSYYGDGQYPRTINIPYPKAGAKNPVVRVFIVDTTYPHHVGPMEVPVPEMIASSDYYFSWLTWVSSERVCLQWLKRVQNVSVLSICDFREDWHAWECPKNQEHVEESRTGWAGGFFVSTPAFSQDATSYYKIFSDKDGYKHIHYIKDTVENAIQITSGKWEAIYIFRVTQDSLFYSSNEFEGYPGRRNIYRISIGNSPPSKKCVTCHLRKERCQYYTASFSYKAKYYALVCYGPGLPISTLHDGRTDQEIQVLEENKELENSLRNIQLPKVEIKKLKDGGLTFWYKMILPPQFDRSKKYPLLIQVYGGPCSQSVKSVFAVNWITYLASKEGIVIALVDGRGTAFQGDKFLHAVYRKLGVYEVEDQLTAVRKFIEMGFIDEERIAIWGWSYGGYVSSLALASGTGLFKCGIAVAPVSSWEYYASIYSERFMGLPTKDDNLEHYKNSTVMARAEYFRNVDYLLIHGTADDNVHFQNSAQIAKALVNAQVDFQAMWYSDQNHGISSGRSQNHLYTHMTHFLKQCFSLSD

T2: human FAPα (Fibroblast activation protein alpha), cell surface expressed (human, UniProt Q12884 1-760)
T2 construct: Endogenous on human lung fibroblasts and CAFs
T2 sequence: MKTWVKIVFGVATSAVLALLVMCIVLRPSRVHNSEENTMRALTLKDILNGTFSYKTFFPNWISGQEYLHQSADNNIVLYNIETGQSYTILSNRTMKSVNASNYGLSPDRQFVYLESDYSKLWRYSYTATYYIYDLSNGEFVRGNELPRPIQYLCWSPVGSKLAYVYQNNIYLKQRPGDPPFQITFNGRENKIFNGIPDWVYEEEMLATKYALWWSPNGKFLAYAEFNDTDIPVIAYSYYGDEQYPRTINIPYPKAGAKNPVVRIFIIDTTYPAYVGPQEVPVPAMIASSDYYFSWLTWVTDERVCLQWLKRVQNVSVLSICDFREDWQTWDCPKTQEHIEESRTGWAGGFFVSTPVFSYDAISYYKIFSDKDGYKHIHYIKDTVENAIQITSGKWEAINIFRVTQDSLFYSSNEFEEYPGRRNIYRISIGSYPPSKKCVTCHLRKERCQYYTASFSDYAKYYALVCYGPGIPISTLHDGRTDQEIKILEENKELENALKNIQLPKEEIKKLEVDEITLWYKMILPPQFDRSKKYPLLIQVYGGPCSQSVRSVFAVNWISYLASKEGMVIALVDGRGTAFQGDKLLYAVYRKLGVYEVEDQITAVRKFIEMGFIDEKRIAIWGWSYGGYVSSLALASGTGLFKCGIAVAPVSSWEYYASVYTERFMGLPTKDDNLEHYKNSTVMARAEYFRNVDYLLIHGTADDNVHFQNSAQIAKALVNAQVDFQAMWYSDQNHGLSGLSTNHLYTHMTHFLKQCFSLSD

T3: human DR4 (Death Receptor 4), cell surface expressed on human tumor cell lines (human, UniProt O00220 24-468)
T3 construct: also called TNFRSF10A; TRAIL-R1
T3 sequence: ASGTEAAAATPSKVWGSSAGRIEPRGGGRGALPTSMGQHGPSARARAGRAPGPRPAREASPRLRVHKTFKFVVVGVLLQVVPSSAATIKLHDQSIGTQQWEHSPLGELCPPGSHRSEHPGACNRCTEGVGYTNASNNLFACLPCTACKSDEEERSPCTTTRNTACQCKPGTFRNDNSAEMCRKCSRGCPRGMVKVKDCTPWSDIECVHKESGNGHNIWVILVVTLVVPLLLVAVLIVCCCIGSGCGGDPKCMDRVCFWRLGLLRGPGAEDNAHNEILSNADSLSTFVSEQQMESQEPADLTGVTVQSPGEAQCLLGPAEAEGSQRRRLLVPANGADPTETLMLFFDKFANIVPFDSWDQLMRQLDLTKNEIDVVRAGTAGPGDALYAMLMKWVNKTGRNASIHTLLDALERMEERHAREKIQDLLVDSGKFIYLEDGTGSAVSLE

B1: BisG1-FAPα-FEAL/b12-FEAR (bispecific antibody, human IgG1, kappa)
heavy 1: EVQLLESGGGLVQPGGSPRLSCEASGFTFSSYALSWVRQAPGKGLEWVSAISGSGGGRYYADSVKGRFTISRDNSKNTLFLQMNSLRAEDTAVYYCAKEGYSSSGTYWDHWGQGTLVTVSSASTKGPSVFPLAPSSKSTSGGTAALGCLVKDYFPEPVTVSWNSGALTSGVHTFPAVLQSSGLYSLSSVVTVPSSSLGTQTYICNVNHKPSNTKVDKRVEPKSCDKTHTCPPCPAPEFEGGPSVFLFPPKPKDTLMISRTPEVTCVVVAVSHEDPEVKFNWYVDGVEVHNAKTKPREEQYNSTYRVVSVLTVLHQDWLNGKEYKCKVSNKALPAPIEKTISKAKGQPREPQVYTLPPSREEMTKNQVSLTCLVKGFYPSDIAVEWESNGQPENNYKTTPPVLDSDGSFLLYSKLTVDKSRWQQGNVFSCSVMHEALHNHYTQKSLSLSPG
light 1: AIQMTQSPSSVSASVGDRVTITCRASQGVSSWLAWYQQKPGRAPKLLIYVASTLQSGVPSRFSGSGSGTDFTLTINSLQPEDFATYYCQQANSFPPTFGQGTRLEMKRTVAAPSVFIFPPSDEQLKSGTASVVCLLNNFYPREAKVQWKVDNALQSGNSQESVTEQDSKDSTYSLSSTLTLSKADYEKHKVYACEVTHQGLSSPVTKSFNRGEC
heavy 2: QVQLVQSGAEVKKPGASVKVSCQASGYRFSNFVIHWVRQAPGQRFEWMGWINPYNGNKEFSAKFQDRVTFTADTSANTAYMELRSLRSADTAVYYCARVGPYSWDDSPQDNYYMDVWGKGTTVIVSSASTKGPSVFPLAPSSKSTSGGTAALGCLVKDYFPEPVTVSWNSGALTSGVHTFPAVLQSSGLYSLSSVVTVPSSSLGTQTYICNVNHKPSNTKVDKRVEPKSCDKTHTCPPCPAPEFEGGPSVFLFPPKPKDTLMISRTPEVTCVVVAVSHEDPEVKFNWYVDGVEVHNAKTKPREEQYNSTYRVVSVLTVLHQDWLNGKEYKCKVSNKALPAPIEKTISKAKGQPREPQVYTLPPSREEMTKNQVSLTCLVKGFYPSDIAVEWESNGQPENNYKTTPPVLDSDGSFFLYSRLTVDKSRWQQGNVFSCSVMHEALHNHYTQKSLSLSPG
light 2: EIVLTQSPGTLSLSPGERATFSCRSSHSIRSRRVAWYQHKPGQAPRLVIHGVSNRASGISDRFSGSGSGTDFTLTITRVEPEDFALYYCQVYGASSYTFGQGTKLERKRTVAAPSVFIFPPSDEQLKSGTASVVCLLNNFYPREAKVQWKVDNALQSGNSQESVTEQDSKDSTYSLSSTLTLSKADYEKHKVYACEVTHQGLSSPVTKSFNRGEC
notes: Fab-arm exchange of IgG1-FAPα-FEAL and IgG1-b12-FEAR
B2: BisG1-b12-FERL/DR4-FERR (bispecific antibody, human IgG1, kappa, lambda)
heavy 1: B1 heavy 2 with G246R, A275D, F415L, R419K
light 1: B1 light 2
heavy 2: QVQLQESGPGLVKPSGTLSLTCAVSGGSISSYSWWSWIRQPPGKGLEWIGELYHSGSTNYNPSLKSRVTISVDKSKNQFSLKLRSVTAADTAVYYCVRGVATIDYWGQGTLVTVSSASTKGPSVFPLAPSSKSTSGGTAALGCLVKDYFPEPVTVSWNSGALTSGVHTFPAVLQSSGLYSLSSVVTVPSSSLGTQTYICNVNHKPSNTKVDKRVEPKSCDKTHTCPPCPAPEFERGPSVFLFPPKPKDTLMISRTPEVTCVVVDVSHEDPEVKFNWYVDGVEVHNAKTKPREEQYNSTYRVVSVLTVLHQDWLNGKEYKCKVSNKALPAPIEKTISKAKGQPREPQVYTLPPSREEMTKNQVSLTCLVKGFYPSDIAVEWESNGQPENNYKTTPPVLDSDGSFFLYSRLTVDKSRWQQGNVFSCSVMHEALHNHYTQKSLSLSPG
light 2: QSALTQPPSASGSPGQSVTISCTGTSSDVGGYNFVSWYQQDPGKAPKLLIYEVTKRPSGVPDRFSGSKSGNTASLTVSGLQAEDEADYYCSSYAGSNNVMFGGGTKLTVLGQPKAAPSVTLFPPSSEELQANKATLVCLISDFYPGAVTVAWKADSSPVKAGVETTTPSKQSNNKYAASSYLSLTPEQWKSHRSYSCQVTHEGSTVEKTVAPTECS
notes: Fab-arm exchange of IgG1-b12-FERL and IgG1-DR4-FERR; also called bsIgG1-ctrl-FERLxDR4-FERR
B3: IgG1-FAPα-FERL (antibody)
heavy: B1 heavy 1 with G240R, A269D
light: B1 light 1
notes: Bivalent monoclonal IgG1 kappa
B4: IgG1-DR4-FERR (antibody, V domains shown)
VH: QVQLQESGPGLVKPSGTLSLTCAVSGGSISSYSWWSWIRQPPGKGLEWIGELYHSGSTNYNPSLKSRVTISVDKSKNQFSLKLRSVTAADTAVYYCVRGVATIDYWGQGTLVTVSS
VL: QSALTQPPSASGSPGQSVTISCTGTSSDVGGYNFVSWYQQDPGKAPKLLIYEVTKRPSGVPDRFSGSKSGNTASLTVSGLQAEDEADYYCSSYAGSNNVMFGGGTKLTVLG
notes: Bivalent monoclonal IgG1 lambda

Columns and labels:
[1] = molecular target: T1, mouse FAPα on Expi293F cells; test: flow cytometry on Expi293F cells transiently expressing mouse FAPα, gMFI PE
Procedure: (§1) Binding of BisG1-FAPα-FERL/DR4-FERR, BisG1-FAPα-FEAL/b12-FEAR and IgG1-FAPα-FERL to FAPα of species commonly used for nonclinical toxicology studies was assessed by flow cytometry using Expi293F cells transiently expressing FAPα from different animal species. IgG1-b12 was included as negative control.
(§2) Expi293F cells expressing recombinant FAPα from various species (human, cynomolgus monkey, dog, pig, rat or mouse) were seeded (20,000 cells/well) in 96-Well round bottom plates (Greiner Bio-one, Cat #650101). Antibody dilutions were prepared using FACS buffer, consisting of PBS (Capricorn Scientific, Cat #PBS-10XA, diluted to 1×PBS in distilled water)+1% BSA (Roche, Cat #10735086001)+0.02% Sodium Azide (Bio-World, Cat #41920044-3). Plates were centrifuged, supernatant was removed, and cells were resuspended in 100 μL of antibody dilutions (concentration range 30-0.00017 μg/mL with three-fold serial dilutions using FACS buffer) of BisG1-FAPα-FERL/DR4-FERR, BisG1-FAPα-FEAL/b12-FEAR, IgG1-FAPα-FERL and IgG1-b12 and incubated for 30 min at 4° C. […] After 30 min incubation at 4° C., cells were washed with FACS buffer and resuspended in FACS buffer supplemented with TO-PRO-3 Iodide viability marker (Invitrogen, Cat #T3605, diluted 1:4,000). Antibody binding to viable cells (gMFI of PE on TO-PRO-3 negative cells) was analyzed by flow cytometry on a FACS Celesta and FACS_Diva software (first two experiments) or iQue® 3 and FlowJo software (last experiment). gMFI was determined and visualized using GraphPad Prism. Binding curves were analyzed using nonlinear regression analysis. The concentration (pg/mL) at which 50% of the maximal effect was observed (EC₅₀) was derived from the fitted curves.

[2] = molecular target: T2, human FAPα (Fibroblast activation …); test: flow cytometry, Expi293F cells expressing human FAPα, n = 2
Procedure: as §1, §2

[3] = molecular target: T2, human FAPα (Fibroblast activation …); test: flow cytometry, Expi293F cells expressing human FAPα, n = 1
Procedure: as §1, §2

[4] = molecular target: T3, human DR4 (Death Receptor 4), cell …; test: flow cytometry, PANC-1 cells, average ± SEM

| Binder | binding result [1] | EC50 [2] [µg/mL] | EC50 [3] [µg/mL] | EC50 [4] [µg/mL] | EC50 (read off the curve) [1] [µg/mL] |
| --- | --- | --- | --- | --- | --- |
| B1 | binds | 0.16 | 0.14 |  |  |
| B2 |  |  |  | 1.63 |  |
| B3 |  | 0.12 | 0.11 |  | ~0.1 |
| B4 |  |  |  | 0.49 |  |
